Data set [1] in a line: size exclusion chromatography in Tris buffer. In kind it is physicochemical. The note with it: SEC. From the text:
The elution profile of peptide 8 was compared to the size standards vitamin B12, aprotinin, and cytochrome c, as well as peptide 2. Peptide 8 elutes as a broad peak with three distinct humps (FIG. 41B). […] Peptide 2 elutes as two distinct peaks: a larger peak with an elution volume consistent with the molecular weight of a dimer, and a smaller peak with an elution volume consistent with the molecular weight of a trimer (FIG. 41B). […]

Data set [2] can be described thus: X-ray crystallography, oligomers in the crystal. The data set is classed as physicochemical. The note with it: crystal state. As for the experimental part: The structures of trimers 3 and 4 were elucidated by X-ray crystallography. One of the challenges in X-ray crystallography is determining the X-ray crystallographic phases. Doing so often requires incorporation of a heavy atom—such as selenium, bromine or iodine—through covalent modification. In previously solving the X-ray crystallographic structures of peptides 1 and 2, homologues were prepared containing p-iodophenylalanine. In solving the X-ray crystallographic structures of trimers 3 and 4, two techniques for X-ray crystallographic phase determination that have not been widely used for peptides were employed: sulfur single-wavelength anomalous diffraction (S-SAD) and post-crystallization incorporation of iodide ions into the crystal lattice.
S-SAD was used to determine the X-ray crystallographic structure of trimer 4. The intrinsic anomalous scattering of the sulfur atoms in the asymmetric unit provided sufficient data to determine the X-ray crystallographic phases. […]
Diffraction data for trimers 3 and 4 were collected on a Rigaku Micromax-007HF X-ray diffractometer with a rotating copper anode at 1.54 Å wavelength with 0.5° oscillation. […] Coordinates for the anomalous signals were determined by HySS in the Phenix software suite 1.10.1. Electron density maps were generated using anomalous coordinates determined by HySS as initial positions in Autosol. […]

Non-standard residues stand in square brackets, D forms with d. No end group written: not given here. Orn = NCCC[C@H](N)C(=O)O

Turning to “peptide 2: macrocyclic β-sheet peptide: Aβ17-23 and Aβ30-36 strands linked by two δOrn turns, Orn35, N-methyl on F20 (Seq. ID 20-21)”, in data set [1], the oligomer size result was “dimer, trimer”.

In the case of “trimer 3: symmetric tris-disulfide crosslinked trimer generated from peptide 3 (chain 1 [Orn]CVFFCED; chain 2 [Orn]AIIGL[Orn]V; not fully specified (some residues); also: symmetric tris-disulfide crosslinked trimer, macrocyclic by macrolactamization, linkage of strands not given here)”, in data set [2], the “oligomer size by crystallography” value was found to be 6.

The values are drawn from patent US11319348B2, “Synthetic beta-amyloid peptides capable of forming stable antigenic oligomers” (The Regents of the University of California, priority 2016, dated 2022).
